# Source: paper PMC9482650, “Quantitative fragmentomics allow affinity mapping of interactomes” (Nature Communications, 2022)
# T1: DFNB31_1, Q9P202
# T1 sequence (Q9P202 135-233, limits assumed, looked up): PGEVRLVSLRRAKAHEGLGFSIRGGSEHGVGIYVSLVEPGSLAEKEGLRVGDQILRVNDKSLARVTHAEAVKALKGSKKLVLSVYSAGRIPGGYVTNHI
# T2: DLG3_1, Q92796
# T2 sequence (Q92796 125-227, limits assumed, looked up): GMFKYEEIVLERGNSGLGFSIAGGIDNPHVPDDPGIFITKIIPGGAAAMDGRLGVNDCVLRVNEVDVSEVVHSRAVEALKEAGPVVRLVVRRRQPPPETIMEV
# T3: HTRA3, P83110
# T3 sequence (P83110 354-453, limits assumed, looked up): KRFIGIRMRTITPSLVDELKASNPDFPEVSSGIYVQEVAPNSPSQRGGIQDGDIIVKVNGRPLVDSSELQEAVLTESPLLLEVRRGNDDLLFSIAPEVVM
# T4: APBA1_1, Q02410
# T4 sequence (Q02410 651-752, limits assumed, looked up): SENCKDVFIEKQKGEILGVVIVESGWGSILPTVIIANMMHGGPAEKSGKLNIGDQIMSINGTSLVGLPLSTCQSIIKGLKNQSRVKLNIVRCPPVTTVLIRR
# T5: HTRA4, P83105
# T5 sequence (P83105 378-476, limits assumed, looked up): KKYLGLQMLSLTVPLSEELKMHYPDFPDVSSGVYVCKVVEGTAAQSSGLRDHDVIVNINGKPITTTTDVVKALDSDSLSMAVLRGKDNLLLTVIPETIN
# T6: MPDZ_5, O75970
# T6 sequence (O75970 695-796, limits assumed, looked up): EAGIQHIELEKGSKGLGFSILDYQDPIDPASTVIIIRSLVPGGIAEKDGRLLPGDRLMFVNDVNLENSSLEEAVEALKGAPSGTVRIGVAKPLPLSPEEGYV
# T7: TJP3_3, O95049
# T7 sequence (O95049 375-456, limits assumed, looked up): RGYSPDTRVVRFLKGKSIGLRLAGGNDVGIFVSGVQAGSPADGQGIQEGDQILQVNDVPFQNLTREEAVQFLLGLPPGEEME
# T8: DLG3_3, Q92796
# T8 sequence (Q92796 374-475, limits assumed, looked up): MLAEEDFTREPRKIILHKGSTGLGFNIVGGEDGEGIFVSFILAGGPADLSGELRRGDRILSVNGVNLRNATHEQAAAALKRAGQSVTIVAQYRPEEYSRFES
# T9: MPP6, Q9NZW5
# T9 sequence (Q9NZW5 125-219, limits assumed, looked up): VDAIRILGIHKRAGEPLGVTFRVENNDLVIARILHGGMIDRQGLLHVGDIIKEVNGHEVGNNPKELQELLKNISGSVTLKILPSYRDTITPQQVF
# T10: ARHGAP21, Q5T5U3
# T10 sequence (Q5T5U3 45-169, limits assumed, looked up): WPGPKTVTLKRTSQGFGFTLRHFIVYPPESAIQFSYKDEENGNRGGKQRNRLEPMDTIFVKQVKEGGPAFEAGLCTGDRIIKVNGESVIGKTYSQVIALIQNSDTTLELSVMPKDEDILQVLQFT
# T11: PCLO, Q9Y6V0
# T11 sequence (Q9Y6V0 4491-4600, limits assumed, looked up): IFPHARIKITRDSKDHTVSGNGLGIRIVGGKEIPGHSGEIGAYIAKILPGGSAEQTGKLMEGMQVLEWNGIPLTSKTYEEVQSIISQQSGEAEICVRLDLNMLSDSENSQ
# T12: NHERF3_3, Q5T2W1
# T12 sequence (Q5T2W1 238-333, limits assumed, looked up): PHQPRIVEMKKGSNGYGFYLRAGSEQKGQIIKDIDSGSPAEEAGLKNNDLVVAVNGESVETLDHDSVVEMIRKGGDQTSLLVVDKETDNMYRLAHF
# T13: RHPN1, Q8TCX5
# T13 sequence (Q8TCX5 508-602, limits assumed, looked up): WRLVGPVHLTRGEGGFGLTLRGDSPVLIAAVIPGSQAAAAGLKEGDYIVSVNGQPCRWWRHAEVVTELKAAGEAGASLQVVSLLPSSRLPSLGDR
# Key:
# Experiment in all cases: holdup assay
# Design in all cases: key: below the threshold = too weak to quantify, mostly under pKd 3.1 to 4
# Details in all cases: plain residues with an end cap or a label only (N-terminal biotin on a linker: ado-ado)
# [1] = molecular target: ARHGEF12, Q9NZN5-2
# ARHGEF12, Q9NZN5-2, sequence (Q9NZN5 other isoform, or with tags, fused parts or gaps): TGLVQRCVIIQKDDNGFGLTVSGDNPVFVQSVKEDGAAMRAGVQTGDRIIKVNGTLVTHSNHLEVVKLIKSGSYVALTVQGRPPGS
# [2] = molecular target: DLG1_1, Q12959
# [3] = molecular target: T1, DFNB31_1, Q9P202
# [4] = molecular target: LIMK2, P53671
# LIMK2, P53671, sequence (P53671 143-248): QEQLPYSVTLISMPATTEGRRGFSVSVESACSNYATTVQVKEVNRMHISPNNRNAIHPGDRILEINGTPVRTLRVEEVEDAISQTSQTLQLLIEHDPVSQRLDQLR
# [5] = molecular target: T2, DLG3_1, Q92796
# [6] = molecular target: T3, HTRA3, P83110
# [7] = molecular target: T4, APBA1_1, Q02410
# [8] = molecular target: T5, HTRA4, P83105
# [9] = molecular target: T6, MPDZ_5, O75970
# [10] = molecular target: MAGI1_1, Q96QZ7
# MAGI1_1, Q96QZ7, sequence (Q96QZ7 1-106): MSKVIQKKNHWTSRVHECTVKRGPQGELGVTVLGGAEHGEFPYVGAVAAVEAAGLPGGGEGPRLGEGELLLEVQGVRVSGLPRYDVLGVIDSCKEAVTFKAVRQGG
# [11] = molecular target: T7, TJP3_3, O95049
# [12] = molecular target: T8, DLG3_3, Q92796
# [13] = molecular target: T9, MPP6, Q9NZW5
# [14] = molecular target: T10, ARHGAP21, Q5T5U3
# [15] = molecular target: T11, PCLO, Q9Y6V0
# [16] = molecular target: PTPN3, P26045
# PTPN3, P26045, sequence (P26045 505-587): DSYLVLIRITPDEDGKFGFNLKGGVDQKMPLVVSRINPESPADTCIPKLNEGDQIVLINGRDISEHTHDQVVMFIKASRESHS
# [17] = molecular target: T12, NHERF3_3, Q5T2W1
# [18] = molecular target: GORASP2, Q9H8Y8
# [19] = molecular target: T13, RHPN1, Q8TCX5
# [20] = molecular target: PDZRN4_1, Q6ZMN7
# PDZRN4_1, Q6ZMN7, sequence (Q6ZMN7 213-318): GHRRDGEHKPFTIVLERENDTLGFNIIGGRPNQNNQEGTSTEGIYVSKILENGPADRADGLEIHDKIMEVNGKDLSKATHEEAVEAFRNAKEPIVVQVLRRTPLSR
# [21] = molecular target: MAGI2_6, Q86UL8
# MAGI2_6, Q86UL8, sequence (Q86UL8 1141-1229): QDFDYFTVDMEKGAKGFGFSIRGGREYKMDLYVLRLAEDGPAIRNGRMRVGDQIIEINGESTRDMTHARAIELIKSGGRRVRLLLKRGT
# [22] = molecular target: LNX1_1, Q8TBB1
# LNX1_1, Q8TBB1, sequence (Q8TBB1 261-371): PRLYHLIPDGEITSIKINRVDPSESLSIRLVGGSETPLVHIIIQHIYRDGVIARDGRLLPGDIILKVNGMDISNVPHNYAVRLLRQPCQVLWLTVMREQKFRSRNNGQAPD
# [23] = molecular target: GORASP1, Q9BQQ3
# GORASP1, Q9BQQ3, sequence (Q9BQQ3 1-208): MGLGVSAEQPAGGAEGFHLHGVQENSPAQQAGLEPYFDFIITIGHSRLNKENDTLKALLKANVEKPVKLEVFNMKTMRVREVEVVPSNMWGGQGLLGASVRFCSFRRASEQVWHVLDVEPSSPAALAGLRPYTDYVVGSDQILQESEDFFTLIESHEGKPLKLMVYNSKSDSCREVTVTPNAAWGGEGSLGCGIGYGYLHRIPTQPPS
# [24] = molecular target: LNX1_3, Q8TBB1
# LNX1_3, Q8TBB1, sequence (Q8TBB1 500-596): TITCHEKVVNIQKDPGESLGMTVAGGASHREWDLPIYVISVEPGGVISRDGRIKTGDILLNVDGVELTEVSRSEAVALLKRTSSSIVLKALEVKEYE
pKd [1],pKd [2],pKd [3],pKd [4],pKd [5],pKd [6],pKd [7],pKd [8],pKd [9],pKd [10],pKd [11],pKd [12],pKd [13],pKd [14],pKd [15],pKd [16],pKd [17],pKd [18],pKd [19],pKd [20],Binder,further results
below the threshold,below the threshold,3.49,below the threshold,below the threshold,4.19,below the threshold,4.12,below the threshold,below the threshold,4.02,below the threshold,below the threshold,3.99,below the threshold,below the threshold,below the threshold,4.13,below the threshold,below the threshold,"QSYPSKHDYV [CLDN18, P56856]",pKd [21]: 3.82; pKd [22]: 3.73; pKd [23]: 3.74; pKd [24]: 3.74
below the threshold,below the threshold,below the threshold,below the threshold,below the threshold,below the threshold,below the threshold,below the threshold,below the threshold,below the threshold,below the threshold,below the threshold,below the threshold,below the threshold,below the threshold,4.18,below the threshold,below the threshold,4.4,below the threshold,"EDPRVEVTQF [SLC22A9, Q8IVM8]",pKd [21]: 3.87; pKd [22]: below the threshold; pKd [23]: below the threshold; pKd [24]: below the threshold
below the threshold,below the threshold,below the threshold,below the threshold,below the threshold,below the threshold,below the threshold,3.79,below the threshold,below the threshold,below the threshold,below the threshold,below the threshold,3.98,below the threshold,below the threshold,below the threshold,below the threshold,below the threshold,below the threshold,"LAHVKHKEQI [AQP3, Q92482]",pKd [21]: below the threshold; pKd [22]: below the threshold; pKd [23]: below the threshold; pKd [24]: below the threshold
4.14,4.21,3.79,below the threshold,3.88,4.49,below the threshold,below the threshold,below the threshold,below the threshold,3.82,below the threshold,below the threshold,4.04,below the threshold,4.39,below the threshold,4.03,4.76,3.79,"APIAGFSSFV [SDK2, Q58EX2]",pKd [21]: 4.13; pKd [22]: 5.16; pKd [23]: 3.75; pKd [24]: below the threshold
4.44,4.17,3.52,below the threshold,3.57,below the threshold,below the threshold,4.14,below the threshold,below the threshold,below the threshold,3.94,below the threshold,below the threshold,below the threshold,4.2,below the threshold,4.12,3.91,below the threshold,"RFQQRMQTHV [KIRREL1, Q96J84]",pKd [21]: below the threshold; pKd [22]: below the threshold; pKd [23]: below the threshold; pKd [24]: below the threshold
4.37,4.49,4.03,below the threshold,4.26,3.48,below the threshold,below the threshold,below the threshold,below the threshold,below the threshold,3.6,below the threshold,4.21,below the threshold,4.79,below the threshold,3.48,3.83,4.17,"REEPDHSTEV [CCRL2, O00421]",pKd [21]: 4.71; pKd [22]: 4.09; pKd [23]: below the threshold; pKd [24]: below the threshold
